From the nanobody polyreactivity screen of Harvey et al. (2022)

Assay: yeast display, Sf9 membrane polyspecificity reagent, FACS + sequencing; frameworks hold sequencing errors
Summary of the method: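 Galactose induction of a Saccharomyces cerevisiae BJ5465 synthetic nanobody display library ran 36–48 hours. The cells were then stained for 1 hour at 4 °C with 10% biotinylated, detergent-solubilized Sf9 membrane reagent, pulled down on streptavidin microbeads and FACS-sorted into low and high (top ~1%) gates on expression and reagent-binding fluorescence. Labels for polyreactivity follow the gate of origin.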

| Sequence | polyreactivity (PSR sort gate) |
| --- | --- |
| QVQIVESGGGLVQAGGSLRISCAASGRTLRYNTMGWSRKAPGKERELVAAISIRGGSTYYADSVKGRFTISRDNAKYTVYLQMISLKAEDTAVYYCNVVFQKAARIVEVDYWGQGTQVSVSS | high polyreactivity |
| QVQIVESGGGLVQAGGSLRISCAPSGLIFAYYAMGRYRQAPGKERELVAAISSVGSTYYADSVKGRFTISRDNAKNTVYLQMNSLKPEDTAVYYCAAALYPYYWPEYNYWGQGTQVNVSS | high polyreactivity |
| QVQIVESGGGLVQAGGSLRLRCAASGLTFYVYVMGWYRQAPGKEREFVAAISYDGDSTYYADSVKGRFTISRDNAKNTVFFQMNSLIAEDTAVYYCNADRYPYWGYDYWGQGTQVTVSS | low polyreactivity |
| QVQIVESGGGLVQAGGSLRLRCAASGSIFSTYAMGWYRQEPGKERELVADISGRVGSTYYADSVKGRFTISRDNAKNTVYLQMNSLKPEDTAVYYCAAALDFWPGYEYYYWGQGTQVTVSS | low polyreactivity |
| QVQIVESGGGLVQAGGSLRLSCAASGFIFGIYDMGWYRQAPGKERELYADSVKGRFTISRDNAKNTVYLQMNSVKPEDTAVYYCNRAQGVHTYVYRYGYWGQGTQVTESS | low polyreactivity |
| QVQIVESGGGLVQAGGSLRLSCAASGFIFVFNAMGWYRQAPGKERELVAAINGGDITNYADSVKGRFTISRDNAKNTVYLQMNSLKPEDTAVYYCAADGEDSLWTGYDYDYWGQGNQVTVSS | low polyreactivity |
| QVQIVESGGGLVQAGGSLRLSCAASGFTFPHNAMGWYRQAPGKERELVAAITSSGGSTYYADSVKGRFTISRDNAKNPVYLEMNSLKPEDTAVYYCAAYWAYGGYESWGQGTQVTVSS | high polyreactivity |
| QVQIVESGGGLVQAGGSLRLSCAASGFTFVINDMGWYRQAPGKERELVADITSGGDTYYADSVKGRFTISRDNAKNTVYLQMNSLKPEDTAVYYCAADIYPDWIYLLYGYWGQGTQVTVSS | low polyreactivity |
| QVQIVESGGGLVQAGGSLRLSCAASGITFTVYAMGWYRQAPGKVRELVAAINSGSSTNYADSVKGRFTISRDNAKNTVYLQMNSLNPEDTAVYYCAASYRKLPDKKRYGYWGQGTQVTVSS | high polyreactivity |
| QVQIVESGGGLVQAGGSLRLSCAASGNTISYYDMGWYRQAPGKERELVADISSGGSTYYADSLKGRFTISRDNAKNTVYLQMNSLKPEDTAVYYCNAVVYIRGTAGTYYYWGQGTQVTVSS | high polyreactivity |
| QVQIVESGGGLVQAGGSLRLSCAASGRIFGPYPMGWYRQAHVKERELVAAISCRGSSTYYADSVKGRFSISRDYAKNTVYLHMIILKPEDTAVFYCAKYPTYSYDYWGQGTQVTVSS | high polyreactivity |
| QVQIVESGGGLVQAGGSLRLSCAASGRIFGYNTMGWYRQAPGKERELVASISYYGGGPYYADSVKGRFTISRDLAKYTFYLQMNSLKPEDTAVYYCNALSYGYDDAYGYWGQGTQVTVSS | low polyreactivity |
| QVQIVESGGGLVQAGGSLRLSCAASGRIFRRYAMGWYRQAPGKEREFVAAISYGGGATYYADSVKGRFTISRDNAKNTFYLQMNSLKPEDTAVYYCNAEVPKSLLLYYPWGYGYWGQGTQVTVSS | low polyreactivity |
| QVQIVESGGGLVQAGGSLRLSCAASGRIFRVNWIGWYRQAPGKESELVAAIRRSGGSTYYADSVKGRFTISRDNAKNTVYLQMNSLKPEDTAVYFCAAPVRQSSYTRYDSWGQGTQVTVSS | high polyreactivity |
| QVQIVESGGGLVQAGGSLRLSCAASGRIFVVIAMGWYRQAPGKERELVATITRGASTYADSVKGRFTISRDNAKNTVYLQMNSLKPEDTAVYYCAAAKRPQVVRYDWTKLEYWGQGTQVTVSS | high polyreactivity |
| QVQIVESGGGLVQAGGSLRLSCAASGRIYRYVMGWYRQAPGKERELVATITGSGGSTYYADSVKGRFTISRDNAKNTAYLQMNSLKPEDTAVYYCAAAGRGSWTTYRFDYWGLGTQVTVSS | high polyreactivity |
| QVQIVESGGGLVQAGGSLRLSCAASGRNFGRYAMGWYRHAPRKERELVATISSGGSTYYADSVKGRFTISRDNAKNTVYLPMNSLKQEDTAVYYCAADYLSYYLYEGSIKYGYWGQGTQVSVSS | high polyreactivity |
| QVQIVESGGGLVQAGGSLRLSCAASGRTFLVNSMGWYRQAPGKEMELVAVITNGGSTYADSVKGRFTISRDNAKNTVYLQMNSLKPEDTAVYNCAARGNRWRSPSGSPYYYWGQGTQVTVSS | high polyreactivity |
| QVQIVESGGGLVQAGGSLRLSCAASGRTIGVYAMGWYRQAPRKERELVAAITGDGTKDYADSVKGRFRFSRAISKITVYLQMNSLKPEDTAVYYCAVGGAGSDDYWGQGTQVTVSS | low polyreactivity |
| QVQIVESGGGLVQAGGSLRLSCAASGRTYYYAMGWYRQAPGKERELVAAITESGDNTYYADSVKGRFTISRDNAKNTVYLQMNSLKPEDTAVYYCAVDYPSPSYYYEYYYWGQGTQVTVSS | high polyreactivity |
| QVQIVESGGGLVQAGGSLRLSCAASGSIFGYYVMGWNRQAPGKERELVAAISSGGGNTYYADSVKGRFTISRDNAKNTVYLQMISLKPEDTAVYYCAALRSWRKTGGAQRYWYDYWGHGTQVTVSS | high polyreactivity |
| QVQIVESGGGLVQAGGSLRLSCAASGSIFPHYAMGWYRQAPGKERELVAAISRGGSTNYADSVKGRFTISRDNAKNTVYLQMNSLKPEDTAVYYCNALRYYSRFLYAVAYRYDYWGQGTQVTVSS | high polyreactivity |
| QVQIVESGGGLVQAGGSLRLSCAASGSNFLFYVMGWYTQAPVKERELVAAINTGVSTNYADSVKGRFTISRDNAKNTVYLQLNSLKPEDTAVYYCNALPYTSDGRGGYWGQGSQVTVSS | low polyreactivity |
| QVQIVESGGGLVQAGGSLRLSCAASGSTFGDNAMGWSRQAPGKERELVAAITRSGGSTYYADSVKGRFTISRDTAKNTVYLHMHSLKPEDTAVYYCNADWYFQYPYDYGGQGTQVTVSS | low polyreactivity |
| QVQIVESGGGLVQAGGSLRLSCAASGSTFLKYTMGWYRQAPGKERELVAAISKSGGSTYYADSVKGRFTISRDNAKNTVYLQMNSLKPEDTAVYYCAIGRSWVSSYGYGYWGQGTQVTVSS | high polyreactivity |
| QVQIVESGGGLVQAGGSLRLSCAASGSTFNRNAMGWNRQATGKERELVAAITRSASSTYYADSVKGRFTISRDNAKNTVYLQMNSLKPEDTAVYYCAVEYVAYLYRMDYWGQGTQVTVSS | high polyreactivity |
| QVQIVESGGGLVQAGGSLRLSCAASGSTFPSYAMGWYRQATGKEREWVAAITRSCGRTYYADSVKGRFTISRDNSKHTVYLQMNSLKPEDTAVYYCAADLGSNYDYWGQGTQVTVLS | low polyreactivity |
| QVQIVESGGGLVQAGGSLRLSCAASGSTFYEYAMGWYRQAPGKERELVATITSGGRTYYADSVKGRFTISRDNAKNTVYLQMNSLKPEDTAVYYCAAAGKGRFHFRSTMDYWGQGSQVTVSS | high polyreactivity |
| QVQIVESGGGLVQAGGSLRLSCAASGSTLSYYGMGWYRQAPGKERELVAAISTGGRTYYADSVKGRFSISRDNATNTVFLQMTSLKPEDTAVYYCNALYVSYVSRYDYWGQGTQVTVSS | high polyreactivity |
| QVQIVESGGGLVQAGGSLRLSCAASVFTFGENAMGWYRQAPGKERELVAAITSGDGTSYADSVKGRFTISRDNAKYTVYLQMNSLKPEDTSVYYCAADVGDELYYSTYDYWGQGTQVTVSS | low polyreactivity |
